Fraction ligated data for 35 sequences are collected here from the supplement of paper PMC6755084.

The first data set relates to F1*subA RNA substrate (template-directed ligation). Put plainly: fraction ligated after 30 min (ligated reads / total reads); higher = more ligase activity; sequences stand for … in GAGACCGCAACTGAAAAGTTGT…TTTCTGCACGTAGAAGCAAAAGGC
As to conditions: 42 °C, parent ribozyme: minF1. On the procedure: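 Chip-synthesised pool of minF1 ligase ribozyme variants (single and double substitutions, single to quadruple deletions, bulge and P2 designed variants) was transcribed with T7 and reacted as a pool with excess substrate F1*subA for 30 min at 42 C in 50 mM EPPS pH 8.5, 25 mM MgCl2. Ligated and unligated RNAs were separated by PAGE, barcoded by RT and deep sequenced; fraction ligated = ligated reads / total reads, relative activity = FL / FL of wild-type minF1 (0.76); sequencing FL correlated with PAGE (R2 = 0.98). Sequences are the DNA template of the ribozyme.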
As to ATCAGAAATGGATGGGTT [4d310], the fraction ligated stood at 0.0014.

As to ATCAGAAATGGATGGTTG [4d309], the fraction ligated was found to be 0.000441.

For the sequence TATCAGAAAGGATGGGTT [4d1070], the fraction ligated came to 0.00116.

Turning to TATCAGAAAGGATGGTTG [4d1069], the fraction ligated was 0.000981.

As to TATCAGAAATGATGGGTT [4d1093], the fraction ligated stood at 0.

For TATCAGAAATGATGGGTTG [3d366], the fraction ligated came out at 0.000941.

In the case of TATCAGAAATGATGGTTG [4d1092], the fraction ligated was determined as 0.00043.

Regarding TATCAGAAATGGAGGGTTG [3d376], the fraction ligated stood at 0.00056.

On to TATCAGAAATGGATGGGTT [3d379], for which the fraction ligated was 0.00181.

For TATCAGAAATGGATGGGTT [s45 (=3d379)], the fraction ligated was 0.00181.

As for TATCAGAAATGGATGGTTA [3d377], the fraction ligated was found to be 0.00122.

TATCAGAAATGGATGGTTG [3d378]: the fraction ligated came out at 0.00121.

Consider TATCAGAAATGGTGGGTTG [3d372], for which the fraction ligated was 0.000922.

Take TATCAGAATGGATGGGTT [4d1042]: the fraction ligated was 0.00126.

On to TATCAGAATGGATGGTTG [4d1041], for which the fraction ligated stood at 0.00128.

A further data set has as its system F1*sub RNA substrate (template-directed ligation). Nature of the data set: fraction ligated after 30 min (ligated reads / total reads); higher = more ligase activity. Particulars: 42 °C. On the procedure:
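Chip-synthesised pool of F1* ligase ribozyme variants (all single and double substitutions, single, double and triple deletions in the catalytic core and GAA bulge, plus designed variants) was transcribed with T7 and reacted as a pool with excess substrate F1*sub for 30 min at 42 C in 50 mM EPPS pH 8.5, 25 mM MgCl2. Ligated and unligated bands were separated by PAGE, barcoded by RT and deep sequenced; fraction ligated = ligated reads / total reads per variant, relative activity = FL / FL of wild type (0.826). Sequences are the DNA template of the ribozyme.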
As for “GAGACCGCAACTGAAAAGTTGTTATCACTTGTCGTAAGAACTTTGGATGGGTTGGTTCTGCACGTAGAAGCAAAAGGC [3d2182]”, the fraction ligated amounted to 0.0451.

On to “GAGACCGCAACTGAAAAGTTGTTATCACTTGTCGTAAGACACTTGGATGGGTTGGTTCTGCACGTAGAAGCAAAAGGC [3d2254]”, for which the fraction ligated turned out to be 0.00633.

For the sequence “GAGACCGCAACTGAAAAGTTGTTATCACTTGTCGTAAGACACTTTGATGGGTTGGTTCTGCACGTAGAAGCAAAAGGC [3d2270]”, the fraction ligated worked out at 0.00433.

As to “GAGACCGCAACTGAAAAGTTGTTATCACTTGTCGTAAGACACTTTGGAGGGTTGGTTCTGCACGTAGAAGCAAAAGGC [3d2280]”, the fraction ligated was determined as 0.0051.

Sequence “GAGACCGCAACTGAAAAGTTGTTATCACTTGTCGTAAGACACTTTGGATGGGTTCGTTCTGCACGTAGAAGCAAAAGGC [s80]” came in with a fraction ligated of 0.0169.

Sequence “GAGACCGCAACTGAAAAGTTGTTATCACTTGTCGTAAGACACTTTGGATGGGTTGGTTCTGCACGTAGAAGCAAAAGGC [2d299]” came in with a fraction ligated of 0.02.

“GAGACCGCAACTGAAAAGTTGTTATCACTTGTCGTAAGACACTTTGGATGGGTTGTTCTGCACGTAGAAGCAAAAGGC [3d2283]”: the fraction ligated came to 0.021.

“GAGACCGCAACTGAAAAGTTGTTATCACTTGTCGTAAGACACTTTGGATGGGTTTGTTCTGCACGTAGAAGCAAAAGGC [s81]” gave a fraction ligated of 0.0148.

Take “GAGACCGCAACTGAAAAGTTGTTATCACTTGTCGTAAGACACTTTGGATGGTTGGTTCTGCACGTAGAAGCAAAAGGC [3d2282]”: the fraction ligated is 0.0129.

Consider “GAGACCGCAACTGAAAAGTTGTTATCACTTGTCGTAAGACACTTTGGTGGGTTGGTTCTGCACGTAGAAGCAAAAGGC [3d2276]”, for which the fraction ligated was 0.00831.

“GAGACCGCAACTGAAAAGTTGTTATCACTTGTCGTAAGACATTTGGATGGGTTGGTTCTGCACGTAGAAGCAAAAGGC [3d2230]” came in with a fraction ligated of 0.00375.

“GAGACCGCAACTGAAAAGTTGTTATCACTTGTCGTAAGACCTTTGGATGGGTTGGTTCTGCACGTAGAAGCAAAAGGC [3d2206]” registered a fraction ligated of 0.0611.

Sequence “GAGACCGCAACTGAAAAGTTGTTATCACTTGTCGTAAGCACTTTGGATGGGTTGGTTCTGCACGTAGAAGCAAAAGGC [3d2151]” registered a fraction ligated of 0.116.

As to “GAGACCGCAACTGAAAAGTTGTTATCACTTGTCGTAGACACTTTGGATGGGTTGGTTCTGCACGTAGAAGCAAAAGGC [3d2058]”, the fraction ligated was 0.0726.

As to “GAGACCGCAACTGAAAAGTTGTTATCACTTGTCTAAGACACTTTGGATGGGTTGGTTCTGCACGTAGAAGCAAAAGGC [3d1901]”, the fraction ligated is 0.0966.

On to “GAGACCGCAACTGAAAAGTTGTTATCACTTGTGTAAGACACTTTGGATGGGTTGGTTCTGCACGTAGAAGCAAAAGGC [3d1809]”, for which the fraction ligated amounted to 0.0204.

“GAGACCGCAACTGAAAAGTTGTTATCACTTTCGTAAGACACTTTGGATGGGTTGGTTCTGCACGTAGAAGCAAAAGGC [3d1584]”: the fraction ligated was 0.0193.

“GAGACCGCAACTGAAAAGTTGTTATCATTGTCGTAAGACACTTTGGATGGGTTGGTTCTGCACGTAGAAGCAAAAGGC [3d1292]” gave a fraction ligated of 0.00677.

“GAGACCGCAACTGAAAAGTTGTTATCCTTGTCGTAAGACACTTTGGATGGGTTGGTTCTGCACGTAGAAGCAAAAGGC [3d1120]” showed a fraction ligated of 0.00301.

“GAGACCGCAACTGAAAAGTTGTTTCACTTGTCGTAAGACACTTTGGATGGGTTGGTTCTGCACGTAGAAGCAAAAGGC [3d507]” showed a fraction ligated of 0.00164.
